The text below walks through data of patent US12415868 (MINERVA BIOTECHNOLOGIES, dated 2025).

Assay [1] concerns the target T1, recombinant human NME7AB (human, UniProt Q9Y5B8 92-376).
T1 construct: also called NME-AB; NME7 (in several passages)
T1 sequence: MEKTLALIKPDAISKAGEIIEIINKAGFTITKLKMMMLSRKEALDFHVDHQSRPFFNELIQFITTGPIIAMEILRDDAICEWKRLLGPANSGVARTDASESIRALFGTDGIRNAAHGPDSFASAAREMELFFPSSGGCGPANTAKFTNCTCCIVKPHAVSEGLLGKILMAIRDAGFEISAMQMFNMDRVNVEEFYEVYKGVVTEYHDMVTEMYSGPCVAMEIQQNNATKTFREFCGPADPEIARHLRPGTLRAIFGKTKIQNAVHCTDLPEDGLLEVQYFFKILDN
Briefly: ELISA sandwich assay, HRP signal (FIG. 1A-1B). As for the experimental part:
Example 3—ELISA Assay Showing NME7$AB$ Simultaneously Binds to Two MUC1* Extra Cellular Domain Peptides Results are shown in FIG. 1. The PSMGFR peptide bearing a C-terminal Cysteine (PSMGFR-Cys) was covalently coupled to BSA using Imject Maleimide activated BSA kit (Thermo Fisher). PSMGFR-Cys coupled BSA was diluted to 10 ug/mL in 0.1M carbonate/bicarbonate buffer pH 9.6 and 50 uL was added to each well of a 96 well plate. After overnight incubation at 4° C., the plate was washed twice with PBS-T and a 3% BSA solution was added to block remaining binding site on the well. After 1 h at RT the plate was washed twice with PBS-T and NME7, diluted in PBS-T+1% BSA, was added at different concentrations. After 1h at RT the plate was washed 3× with PBS-T and anti-NM23-H7 (B-9). Santa Cruz. […] After 1 h at RT the plate was washed 3× with PBS-T and binding of NME7 was measured at 415 nm using ABTS solution (Pierce).
After 1 h at RT the plate was washed 3× with PBS-T and His-Tagged PSMGFR peptide (PSMGFR-His) or biotinylated PSMGFR peptide (PSMGFR-biotin), diluted in PBS-T+1% BSA, was added at different concentration. […] After 1 h at RT the plate was washed 3× with PBS-T and binding of PSMGFR peptide to NME7 already bound to another PSMGFR peptide (which could not signal by anti-His antibody or by streptavidin) coupled BSA was measured at 415 nm using a ABTS solution (Pierce).

In assay [2] the target is T1, recombinant human NME7AB. Briefly: ELISA, plate coated with recombinant NME7AB (FIG. 24). As for the experimental part: The surface of the multi-well plate was coated with a recombinant $NME7AB$. Anti-$NME7AB$ antibodies were separately added to wells. Standard washes were performed and visualized by adding an HRP-conjugated secondary antibody. […] 7 of the 10 new anti-NME7 antibodies bound strongly to NME7$AB$. […] The surface of the multi-well plate was coated with a recombinant NME1-S120G dimers, which are also known to bind to the MUC1* extra cellular domain. Anti-NME7$AB$ antibodies were separately added to wells. Standard washes were performed and visualized by adding an HRP-conjugated secondary antibody.

B1: PSMGFR peptide (MUC1* extra cellular domain peptide) (peptide)
peptide: GTINVHDVETQFNQYKTEAASRYNLTISDVSVSDVPFPFSAQSGA
notes: For the other ELISAs only surface-immobilized peptide is stated; also called MUC1* peptide; FLR
As to B1, the binding result in the assay with recombinant human NME7AB [1] is listed as “binds”.

B2: anti-NME7 monoclonal antibody 8F9A5A1 (antibody, V domains shown)
VH: IQLVQSGPELKKPGETVKISCKASGYTFTNYGMNWVKQAPGKGLKWMGWINTYTGEPTYVDDFKGRFAFSLETSATTAYLQINNLKNEDTSTYFCARLRGIRPGPLAYWGQGTLVTVSA
VL: EILLTQSPAIIAASPGEKVTITCSASSSVSYMNWYQQKPGSSPKIWIYGISNLASGVPARFSGSGSGTSFSFTINSMEAEDVATYYCQQRSSYPPTFGGGTKLEIKR
notes: Mouse monoclonal
Take B2: the binding result with recombinant human NME7AB [2] was “binds”.
